These results are taken from patent US20210017275A1 (Alector, published 2021).

In assay [1] the target is T1, Human Siglec 5, Fc chimera (R&D Systems) (human, UniProt O15389 17-434, limits assumed).
T1 construct: Bought or recombinant Fc fusion; also called recombinant Siglec-5-Fc; not shown: Fc part
T1 sequence: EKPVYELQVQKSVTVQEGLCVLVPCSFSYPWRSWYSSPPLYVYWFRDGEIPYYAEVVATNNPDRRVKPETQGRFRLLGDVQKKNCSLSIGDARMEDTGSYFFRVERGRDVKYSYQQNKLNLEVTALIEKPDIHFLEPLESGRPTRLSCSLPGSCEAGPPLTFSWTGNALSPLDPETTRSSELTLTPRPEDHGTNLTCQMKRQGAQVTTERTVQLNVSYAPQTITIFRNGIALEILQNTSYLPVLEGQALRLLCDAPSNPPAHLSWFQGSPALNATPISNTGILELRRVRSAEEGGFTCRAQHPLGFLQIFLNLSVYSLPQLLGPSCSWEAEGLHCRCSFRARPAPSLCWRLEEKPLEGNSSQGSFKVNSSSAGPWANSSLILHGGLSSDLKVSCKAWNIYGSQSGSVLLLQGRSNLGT
As to the kind of experiment: RBC adhesion to plate-bound Siglec-5-Fc, 1.0 ug/ml isotype control, percent of binding without antibody.

The target of assay [2] is human Siglec-5 expressed on human primary cells (human) (UniProt O15389). As to the kind of experiment: flow cytometry, human primary dendritic cells, 10 ug/ml mAb.
The target is the same in assay [3]. As to the kind of experiment: flow cytometry, human primary neutrophils, 10 ug/ml mAb.
Assay [4] deals with T1, Human Siglec 5, Fc chimera (R&D Systems). The assay can be described thus: RBC adhesion to plate-bound Siglec-5-Fc, 0.3 ug/ml mAb, percent of binding without antibody.
Assay [5] deals with human Siglec-5 expressed on human primary cells (human) (UniProt O15389). As to the kind of experiment: flow cytometry, human primary macrophages, 10 ug/ml mAb. In general terms: In flow cytometry, cells or beads pass a laser one at a time.
The target is the same in assay [6]. As to the kind of experiment: flow cytometry, human primary monocytes, 10 ug/ml mAb.
For assay [7], the target named is T2, human Siglec-5 expressed on human primary cells (human, UniProt O15389 17-551).
T2 construct: Endogenous receptor on human primary monocytes, dendritic cells, macrophages and neutrophils; also called CD170
T2 sequence: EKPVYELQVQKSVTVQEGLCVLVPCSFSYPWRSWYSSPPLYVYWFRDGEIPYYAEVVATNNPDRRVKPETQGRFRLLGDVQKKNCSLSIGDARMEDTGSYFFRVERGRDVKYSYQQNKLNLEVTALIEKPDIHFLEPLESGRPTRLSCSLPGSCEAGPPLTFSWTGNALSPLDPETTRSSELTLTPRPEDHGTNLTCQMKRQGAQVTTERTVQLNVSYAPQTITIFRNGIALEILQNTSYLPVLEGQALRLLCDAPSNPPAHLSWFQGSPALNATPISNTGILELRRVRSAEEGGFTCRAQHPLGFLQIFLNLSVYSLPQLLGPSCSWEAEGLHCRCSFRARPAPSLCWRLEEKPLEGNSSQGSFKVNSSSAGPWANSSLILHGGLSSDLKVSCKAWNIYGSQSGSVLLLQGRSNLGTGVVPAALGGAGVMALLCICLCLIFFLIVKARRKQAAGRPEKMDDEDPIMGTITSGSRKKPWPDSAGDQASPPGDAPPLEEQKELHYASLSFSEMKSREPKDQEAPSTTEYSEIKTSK
The assay can be described thus: flow cytometry, human primary macrophages, 10 ug/ml mAb.
Method: (§1) Initial characterization of Siglec-5 antibodies involved determining their ability to bind Siglec-5 expressed on human primary monocytes, human primary macrophages, human primary dendritic cells, and human primary neutrophils. Cells were harvested, plated at 10⁶1m1 in a 96 well plate, and incubated in 100 μl PBS containing 2% FBS, 2 mM EDTA and 10 μg/ml Mab and Fc blocking reagent for 1 hour in ice. […] Cells were washed twice in cold PBS and analyze by flow cytometry on a BD FACS Canto. Data analysis and calculation of MFI values was performed with FlowJo (TreeStar) software version 10.0.7.
(§2) Binding is compared to an isotype control.

Assay [8] concerns the target T2, human Siglec-5 expressed on human …. The assay can be described thus: flow cytometry, human primary dendritic cells, 10 ug/ml mAb.
Method: as §1, §2
In assay [9] the target is T3, Histidine-tagged human Siglec-5 (NovoProtein) (human, UniProt O15389 17-434, limits assumed).
T3 construct: Bought protein; also called Siglec-5-his tagged protein; not shown: histidine tag
T3 sequence: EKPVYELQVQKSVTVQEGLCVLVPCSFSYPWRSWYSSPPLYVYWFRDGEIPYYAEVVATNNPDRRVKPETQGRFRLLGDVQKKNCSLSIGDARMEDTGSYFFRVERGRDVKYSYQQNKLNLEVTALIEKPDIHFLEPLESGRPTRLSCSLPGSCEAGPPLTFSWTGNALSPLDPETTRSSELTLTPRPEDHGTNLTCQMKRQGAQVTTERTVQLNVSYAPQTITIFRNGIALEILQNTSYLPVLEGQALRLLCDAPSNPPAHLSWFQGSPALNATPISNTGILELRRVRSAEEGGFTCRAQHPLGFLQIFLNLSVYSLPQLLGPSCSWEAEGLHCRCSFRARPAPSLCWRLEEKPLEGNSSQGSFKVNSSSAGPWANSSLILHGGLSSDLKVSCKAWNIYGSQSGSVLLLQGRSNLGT
The assay can be described thus: SPR (BiaCore T200, 25 C), mAb captured on anti-mouse IgG, 15 nM His-tagged Siglec-5, single-concentration 1:1 fit. On the technique in general: Surface plasmon resonance follows binding to a sensor surface in real time, without labels.

In assay [10] the target is T1, Human Siglec 5, Fc chimera (R&D Systems). The assay can be described thus: RBC adhesion to plate-bound Siglec-5-Fc, 1.0 ug/ml mAb, percent of binding without antibody.
Method: Siglec-5 antibodies (0.3 μg/ml or 1.0 μg/ml) were bound for one hour at RT with gentle rocking. After removal of unbound antibody, red blood cells were added to each well at a concentration of 3.0 ×10⁶ cells per ml and incubated at RT for one hour. Unbound RBCs were then carefully washed off 3X with PBS, and water was added to each well for hypotonic lysis of bound RBCs. The plate was transferred to -80° C. for 10 minutes, followed by 37° C. for 15 minutes. Bound RBCs were detected by peroxidase activity, followed by 2N sulfuric acid to stop the reaction.
Assay [11] addresses T2, human Siglec-5 expressed on human …. As to the kind of experiment: flow cytometry, human primary neutrophils, 10 ug/ml mAb.
Method: as §1, §2
The target is the same in assay [12]. As to the kind of experiment: flow cytometry, human primary monocytes, 10 ug/ml mAb.
Method: as §1, §2

mouse IgG2a isotype control antibody had a Percent RBC Binding to Siglec-5 in [1] of 94.5%.
mouse IgG2b isotype control antibody: in assay [1], the Percent RBC Binding to Siglec-5 was 94.4%.
For “commercially available anti-Siglec-5 antibody, clone 194128 (R&D Systems)”, the % Positive in [2] was determined as 94.8%; in assay [3], 99.2%; in assay [5] it was 96.9%; in [6] it was 98.8%. Further, the MFI in assay [2] turned out to be 641; in assay [3] it was 383; in assay [5], 806; in assay [6], 463. This molecule also yielded a Percent RBC Binding to Siglec-5 in assay [4] of 41.5%.

B1: anti-Siglec-5 monoclonal antibody 2G5 (antibody, IgG1, V domains shown)
VH: EIQLQQSGPELVKPGASVKVSCKASGYSFTDYNMYWVKQSHGKSLEWIGYIDPYNGNTTYNQRFKGKATLTVDKSSSTAFMHLNSLTSEDAAVYYCATFYGFDGFAYWGQGSLVAVSA
VL: QAVVTQESALTTSPGETVTLTCRSSTGAVTTSNYANWVQEKPDHLFTGLIGTTNNRAPGVPARFSGSLIGDKAALTITGAQTEDEAIYFCALWYSNHLVFGGGTKLTVLG
Usually Kd stands for the constant that tells how readily two partners part at equilibrium. A lower Kd goes with a tighter complex. As to B1, the “% Positive” value in [7] amounted to 91.8%; in assay [8], 90.7%; in assay [11] it was 87.4%; in [12], 97.3%. For the same molecule, the MFI in assay [7] was 569; in assay [8], 459; in assay [11] it was 207; in assay [12] it was 368. This molecule also came in with a Kd in assay [9] of 0.081 nM. Further, the figures for the “Percent RBC Binding to Siglec-5” value in assay [10] and in assay [4] were 6.73% and 31.8%, respectively.

B2: anti-Siglec-5 monoclonal antibody 9A5 (antibody, IgG1, V domains shown)
VH: QVQLQQSGPELVEPGASVKVSCKASGYAFTSYNMYWVKQSHGKSLEWIGYIDPYNGGTYYDQKFKGRATLTVDKSSSTAHMHLNSLTSEDSAVYYCVFFYEYDGFPYWGQGTLVTVSA
VL: DIVLTQSPTLMSASPGEKVTMTCSASSSVSYMYWYQQKPRSSPKPLIYLTSNLASGVPARFSGSGSGTSYSLTISSMEAEDAATYYCQQWSSNPLTFGAGTKLELK
Regarding B2, the “% Positive” value in assay [7] turned out to be 87.8%; in assay [8], 93.9%; in assay [11], 98.6%; in assay [12], 93.2%. Further, the MFI in assay [7] stood at 471; in assay [8] it was 591; in [11], 332; in assay [12], 368. Moreover, the Kd in [9] was 0.408 nM. Moreover, the “Percent RBC Binding to Siglec-5” value in [10] was determined as 5.59%; in [4] it was 47.5%.

B3: anti-Siglec-5 monoclonal antibody 11C6 (antibody, IgG1, V domains shown)
VH: QVQLQQSGAELVKPGASVKLSCKASGYTFTEYTIHWVKQRSGQGLEWIGWFYPGSGSIKYNEKFKDKATLTAVKSSSTVYMEFSRLTSEDSAVYFCARQDYDGLGFAYWGQGTLVTVSA
VL: DVLMTQTPLSLPVSLGDQASISCRSSQTIVHSNGNTYLEWYLQKPGQSPKLLIYKVSNRFSGVPDRFSGSGSGTDFTLKISRVEAEDLGVYYCFQGSHVPWTFGGGTKLEIK
notes: also called 1106
Consider B3, for which the “% Positive” value in assay [7] turned out to be 80.6%; in [8] it was 86.9%; in [11], 99.7%; in [12] it was 95.7%. In addition, the MFI in assay [7] worked out at 451; in assay [8] it was 402; in assay [11] it was 500; in [12], 386. In assay [9], the Kd turned out to be 0.166 nM. The results for the “Percent RBC Binding to Siglec-5” value in [10] and in assay [4] were 4.76% and 25.4%, respectively.

B4: anti-Siglec-5 monoclonal antibody 8C3 (antibody, IgG1, V domains shown)
VH: QVQLQQSGGGLVKPGTSVKLSCKASGYIFTEYIIHWVKQRSGQGLEWIGWFYPGIISIKYNEKFKDKATLTADKSSSTVYMELSRLTSEDSAVYFCAGHEGYDGAMDYWGQGTSVTVSS
VL: DVLMTQTPLSLPVSLGDQASISCRCSQSIVHSNGNTYLEWYLQKPGQSPKLLIYRVSNRFSGVPDRFSGSGSGTDFTLKISRVEAEDLGVYYCFQGSHVPWTFGGGTKLEIK
Turning to B4, the “% Positive” value in assay [7] is 92%; in assay [8], 94.9%; in assay [11], 96%; in assay [12] it was 94.8%. Besides, the MFI came to 490 in assay [7], 512 in [8], 320 in [11] and 377 in [12]. This molecule also came in with a Kd in [9] of 0.043 nM. Besides, the results for the “Percent RBC Binding to Siglec-5” value in assay [10] and in assay [4] were 5.36% and 24.2%, respectively.

B5: anti-Siglec-5 monoclonal antibody 10F9 (antibody, IgG1, V domains shown)
VH: EIQLQQSGPELVKPGASVKVSCKASGYSFTGYNMYWVKQSHGKSFEWIGYIDPYTGGTSYNQRFKGKATLTVDKSSSTAFMHLNSLTSEDSAIYYCALFYDYDGFPYWGQGTLVTVSA
VL: DIVMTQSQKFMSTSVGDRVSVTCKASQNVDTNVAWYQQKPGQSPKALIYSASYRYSGVPDRFTGSGSGTDFTLTISNVQSEDLAEYFCQQYNSYPYTFGGGTKLEIK
For the molecule B5, the “% Positive” value turned out to be 96.2% in [7], 95.6% in assay [8], 98.9% in [11] and 95.3% in assay [12]. Moreover, the MFI is 562 in assay [7], 589 in assay [8], 371 in [11] and 405 in [12]. Also, the Kd in [9] turned out to be 0.104 nM. For the same molecule, the “Percent RBC Binding to Siglec-5” value in assay [10] is 6.22%; in assay [4], 48.7%.

B6: anti-Siglec-5 monoclonal antibody 8A1 (antibody, IgG1, V domains shown)
VH: EIQLQQSGPELVKPGASVKVSCKASDYAFTSYNIYWVKQSHGKSLEWIGYIDPYNGGTSYNQTFKGKATLTVDKSSSTAYMHLNSLTSEDSAVYYCAMKVGYEAMDYWGQGTSVTVSS
VL: DIVMTQSQKFMSTSVGDRVSVTCKASQNVGTYVAWYQQKPGQSPKALIYSASYRYSGVPDRFTGSGSGTDFTLNISNVQSEDLAEYFCQQFNSYPYTFGGGTKLEIK
Regarding B6, the “% Positive” value was 83% in assay [7], 85.7% in [8], 89% in assay [11] and 98% in assay [12]. Moreover, the MFI stood at 457 in [7], 349 in [8], 219 in assay [11] and 398 in assay [12]. For the same molecule, the Kd in [9] is 0.229 nM. The “Percent RBC Binding to Siglec-5” value in assay [10] amounted to 8%; in assay [4] it was 19%.

B7: anti-Siglec-5 monoclonal antibody 11H3 (antibody, IgG1, V domains shown)
VH: QVQLQQSGPELVKPGASVKVSCKASDYAFTSYNIYWVKQSHGKSLEWIGYIDPYNGGTSYNQTFKGKATLTVDKSSSTAYMHLNSLTSEDSAVYYCAMKVGYEAMDYWGQGTSVTVSS
VL: DIQMTQSQKFMSTSVGDRVSVTCKASQNVGTNVAWYQQKPGQSPKALIYSASYRYSGVPDRFTGSGSGTDFTLNISNVQSEDLAEYFCQQFNSYPYTFGGGTKLEIK
For B7, the “% Positive” value in assay [7] turned out to be 84.1%; in [8], 86%; in [11], 97.8%; in assay [12] it was 95.5%. Also, the MFI was 444 in assay [7], 377 in assay [8], 367 in assay [11] and 376 in [12]. In assay [9], the Kd turned out to be 0.569 nM. For the same molecule, the “Percent RBC Binding to Siglec-5” value in assay [10] came to 6.17%; in [4] it was 38.5%.
